The values that follow are results of earlier work, collected in publication PMC4421034.

In the series the target is Calmodulin (UniProt P0DP23).

For MLCK (from UniProt Q15746), the Kd (usually the constant that tells how readily two partners part at equilibrium) was 1 nM.
